What was measured:
[1] = target: T1, MtHCP (hybrid cluster protein, class I) (Methanothermococcus thermolithotrophicus, UniProt A0AA82WPD8); assay: X-ray crystal structure, […] Å; type: binding; conditions: as isolated, reduced state (MtHCPred)
T1 construct: gene hcp; native anaerobic purification from the archaeon, untagged; five extra N-terminal residues versus WP_026182881.1 (mispredicted start Met)
T1 sequence (A0AA82WPD8 1-548): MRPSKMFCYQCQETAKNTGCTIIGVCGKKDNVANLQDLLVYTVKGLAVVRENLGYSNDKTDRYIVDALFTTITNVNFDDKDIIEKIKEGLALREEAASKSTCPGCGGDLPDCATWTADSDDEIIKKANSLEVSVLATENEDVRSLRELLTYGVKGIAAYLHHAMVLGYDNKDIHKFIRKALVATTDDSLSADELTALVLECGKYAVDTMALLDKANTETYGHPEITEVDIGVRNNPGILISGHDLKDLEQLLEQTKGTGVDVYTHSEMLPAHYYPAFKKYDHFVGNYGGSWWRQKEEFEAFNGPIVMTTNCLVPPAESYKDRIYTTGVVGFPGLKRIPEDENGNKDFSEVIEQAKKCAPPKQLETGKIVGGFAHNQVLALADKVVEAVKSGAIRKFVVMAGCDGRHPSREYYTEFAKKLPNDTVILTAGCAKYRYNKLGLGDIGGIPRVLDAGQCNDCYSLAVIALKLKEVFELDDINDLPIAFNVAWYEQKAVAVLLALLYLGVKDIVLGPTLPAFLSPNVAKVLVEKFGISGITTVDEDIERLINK

purified protein = substrate: NO; assay: purified protein; type: biochemical, Methanothermococcus thermolithotrophicus; conditions: 10 mM methyl viologen, 75 μM dithionite, 10 μM EDTA, 50 mM HEPES pH 7.35, 50°C, anaerobic

Question: How did the “X-ray crystal structure, 1.45 Å” value [1] turn out when `[S]12[Fe]3[S]4[Fe]1[S]1[Fe]2[S]3[Fe]41` [[4Fe-4S] cluster] was run?
Answer: harbouring a cubane [4Fe-4S] cluster and the hybrid cluster

B1: MtHCP (hybrid cluster protein, class I) (Methanothermococcus thermolithotrophicus DSM 2095) (protein)
chain: T1 sequence (A0AA82WPD8 1-548)
notes: native anaerobic purification from the archaeon, untagged; five extra N-terminal residues versus WP_026182881.1 (mispredicted start Met)
Question: What does the source list for B1?
Answer: Km (purified protein): 2200 ± 500 µM; kcat (purified protein): 0.072 s⁻¹

Reference: paper PMC10210160, “Structural and biochemical elucidation of class I hybrid cluster protein natively extracted from a marine methanogenic archaeon” (Frontiers in Microbiology, 2023)
